Test results taken from US20200216522A1 (DENALI THERAPEUTICS, published 2020).
Where “and” joins values, the source holds several entries; their conditions need not be identical. Equal entries are not always repeated. Values belong to the binder of their own block, whether it stands above or below them.

Experiments:
[1] = molecular target: human Tau splice isoform 2N3R (Tau410) (human, UniProt P10636 1-758); test: Fab ELISA
Method: (§1) Half-area ELISA plates (Costar™) were coated overnight at 4° C. with 25 μL per well of 0.5 μg/mL r-Tau or p-Tau. The plates were washed three times with PBST using a BioTek® plate washer. The plates were then blocked for one hour at room temperature with 100 μL per well of PBSA. After washing three times with PBST, the periplasmically-expressed Fabs were added ([…]) and the plates were incubated for one hour. The plates were subsequently washed three times with PBST, and 25 μL per well of PBSA containing a 1:5,000 dilution of HRP-conjugated rabbit anti-human kappa (obtained from Bethyl Laboratories) was added. The plates were incubated at room temperature for 30 minutes, then washed three times with PBST. The plates were developed by adding 25 μL per well of TMB substrate (obtained from Thermo Fisher) and quenched with 2N H₂SO₄. The signal was quantified on a BioTek® plate reader at A₄₅₀. Wells with signal greater than 5-fold over background for both r-Tau and p-Tau were considered positive and the clones were re-arrayed from the primary culture for confirmation of binding (by repeat of ELISA) and sequencing of the variable regions.
(§2) ELISAs were performed essentially as described above, but coating was performed using 1 μg/mL of each recombinant Tau species and using a 1:1 dilution (in PBS with 0.1% BSA, 0.05% Tween®) of Fab containing supernatant. The results of the ELISAs, showing Fab binding to cyno Tau and mouse Tau, as well as binding to phosphorylated full-length human Tau and the human Tau isoforms, are shown in Table 1 below.

[2] = molecular target: human Tau splice isoform 1N3R (Tau381) (human, UniProt P10636 1-758); test: Fab ELISA
Method: as §1, §2

[3] = molecular target: human Tau splice isoform 1N4R (Tau412) (human, UniProt P10636 1-758); test: Fab ELISA
Method: as §1, §2

[4] = molecular target: T1, hyperphosphorylated recombinant human Tau441 (p-Tau) (human, UniProt P10636 1-758, phosphorylated in vitro with PKA and GSK3beta; sites not listed); test: Fab ELISA
T1 construct: also called p-Tau (2N4R); phosphorylated r-Tau
Method: as §1, §2

mouse Tau = mouse Tau (mouse, UniProt P10637 2-733); test: Fab ELISA
Method: as §1, §2

[5] = molecular target: T2, N-terminal truncated human Tau (Tau(50-441)) (human, UniProt P10636 50-758); test: Fab ELISA
T2 construct: also called 50-441 (2N4R)
Method: as §1, §2

[6] = molecular target: human Tau splice isoform 0N4R (Tau383) (human, UniProt P10636 1-758); test: Fab ELISA
Method: as §1, §2

[7] = molecular target: human Tau splice isoform 0N3R (Tau352) (human, UniProt P10636 1-758); test: Fab ELISA
Method: as §1, §2

[8] = molecular target: T3, full-length human Tau (Tau441; 2N4R), recombinant (human, UniProt P10636 1-758); test: Fab ELISA
T3 construct: made in E. coli, His6-Smt3 tag removed; biotinylated through amines for Octet and phage work; also called r-Tau; recombinant Tau
Method: as §1, §2

cynomolgus monkey Tau = molecular target: T4, cynomolgus monkey Tau (cynomolgus monkey, UniProt P57786 2-459 (rhesus entry)); test: Fab ELISA
T4 construct: also called cyno Tau; cyno-Tau
Method: as §1, §2

[9] = molecular target: T5, C-terminal truncated human Tau (Tau(1-421)) (human, UniProt P10636 1-738); test: Fab ELISA
T5 construct: also called 1-421 (2N4R)
Method: as §1, §2

[10] = molecular target: T3, full-length human Tau (Tau441; 2N4R), …; test: Octet binning on biotin-r-Tau; competitor 1G7
Method: (§3) Epitope binning assays were performed using a FortéBio® Octet® RED384 instrument using FortéBio® Streptavidin biosensors. Biotinylated recombinant Tau was diluted to a concentration of 2 μg/mL in kinetic buffer (obtained from FortéBio®) and captured onto individual biosensors for 1 minute. A baseline was then established for 1 minute in kinetic buffer. The loaded biosensors were dipped into 10 μg/mL of the first chimeric IgG antibody until signal saturation, followed by dipping into 1 μg/mL of a second antibody. The binding for the second antibody was normalized to its total binding in the absence of the first antibody.

[11] = molecular target: T3, full-length human Tau (Tau441; 2N4R), …; test: Octet binning on biotin-r-Tau; competitor 1A5
Method: as §3

[12] = molecular target: T3, full-length human Tau (Tau441; 2N4R), …; test: SPR Biacore, IgG captured, r-Tau injected
Method: The affinity of chimeric IgG antibodies 1C7, 1A1, 1A5, 1D10, and 1G7 for recombinant Tau was determined by surface plasmon resonance using a Biacore™ T200 instrument. Biacore™ Series S CM5 sensor chips were immobilized with monoclonal mouse anti-human IgG (Fc) antibody (human antibody capture kit from GE Healthcare). 1 μg/mL of antibody was captured for 1 minute on each flow cell and serial 3-fold dilutions of recombinant Tau were injected at a flow rate of […]. Each sample was analyzed with a 3-minute association and a 10-minute dissociation. After each injection the chip was regenerated using 3M MgCl₂. Binding response was corrected by subtracting the RU from a flow cell capturing an irrelevant IgG at similar density. A 1:1 Languir model of simultaneous fitting of kₒₙ and koff was used for kinetics analysis.

[13] = molecular target: T3, full-length human Tau (Tau441; 2N4R), …; test: Octet binning on biotin-r-Tau; competitor 1D10
Method: as §3

[14] = molecular target: T3, full-length human Tau (Tau441; 2N4R), …; test: Octet binning on biotin-r-Tau; row antibody Ab107 (anti-BACE1 control)
Method: as §3

[15] = molecular target: T3, full-length human Tau (Tau441; 2N4R), …; test: SPR Biacore
[16] = molecular target: T3, full-length human Tau (Tau441; 2N4R), …; test: Octet binning on biotin-r-Tau; competitor 1C7
Method: as §3

human Tau splice isoform 1N3R (Tau381), sequence (P10636 other isoform, or with tags, fused parts or gaps limits assumed): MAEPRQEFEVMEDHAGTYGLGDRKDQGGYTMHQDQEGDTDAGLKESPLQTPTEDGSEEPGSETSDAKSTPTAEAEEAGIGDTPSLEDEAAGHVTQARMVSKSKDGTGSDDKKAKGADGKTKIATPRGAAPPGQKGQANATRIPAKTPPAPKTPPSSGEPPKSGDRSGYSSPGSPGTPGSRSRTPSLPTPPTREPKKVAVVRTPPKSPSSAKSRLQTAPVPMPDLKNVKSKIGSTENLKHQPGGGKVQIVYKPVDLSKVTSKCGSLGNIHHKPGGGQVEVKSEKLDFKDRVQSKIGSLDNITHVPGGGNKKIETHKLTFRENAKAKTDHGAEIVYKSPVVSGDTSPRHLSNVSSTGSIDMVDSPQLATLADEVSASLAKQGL
T3 sequence (P10636 other isoform, or with tags, fused parts or gaps limits assumed): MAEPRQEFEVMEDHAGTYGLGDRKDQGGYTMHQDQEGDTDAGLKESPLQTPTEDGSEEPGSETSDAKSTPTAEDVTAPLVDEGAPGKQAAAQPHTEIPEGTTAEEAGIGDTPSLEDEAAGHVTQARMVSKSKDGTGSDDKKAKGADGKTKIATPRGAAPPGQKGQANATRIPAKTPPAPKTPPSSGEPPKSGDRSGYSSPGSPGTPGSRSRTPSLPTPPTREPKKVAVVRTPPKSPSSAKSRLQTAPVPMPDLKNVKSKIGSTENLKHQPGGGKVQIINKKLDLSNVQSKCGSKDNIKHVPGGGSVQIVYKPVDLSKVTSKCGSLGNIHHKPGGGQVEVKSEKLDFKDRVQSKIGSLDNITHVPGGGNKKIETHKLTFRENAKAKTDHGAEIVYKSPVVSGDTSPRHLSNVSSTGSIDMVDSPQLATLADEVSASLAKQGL
human Tau splice isoform 0N4R (Tau383), sequence (P10636 other isoform, or with tags, fused parts or gaps limits assumed): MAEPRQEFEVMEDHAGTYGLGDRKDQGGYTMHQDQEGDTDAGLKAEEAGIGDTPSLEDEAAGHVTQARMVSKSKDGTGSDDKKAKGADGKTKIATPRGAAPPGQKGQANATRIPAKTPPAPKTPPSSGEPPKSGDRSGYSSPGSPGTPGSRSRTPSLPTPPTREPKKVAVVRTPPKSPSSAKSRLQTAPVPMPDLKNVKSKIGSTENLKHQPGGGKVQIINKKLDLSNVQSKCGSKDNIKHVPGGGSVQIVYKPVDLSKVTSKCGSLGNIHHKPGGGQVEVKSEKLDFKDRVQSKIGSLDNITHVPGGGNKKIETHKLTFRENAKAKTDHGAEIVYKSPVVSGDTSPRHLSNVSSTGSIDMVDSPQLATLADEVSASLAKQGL
mouse Tau, sequence (P10637 other isoform, or with tags, fused parts or gaps limits assumed): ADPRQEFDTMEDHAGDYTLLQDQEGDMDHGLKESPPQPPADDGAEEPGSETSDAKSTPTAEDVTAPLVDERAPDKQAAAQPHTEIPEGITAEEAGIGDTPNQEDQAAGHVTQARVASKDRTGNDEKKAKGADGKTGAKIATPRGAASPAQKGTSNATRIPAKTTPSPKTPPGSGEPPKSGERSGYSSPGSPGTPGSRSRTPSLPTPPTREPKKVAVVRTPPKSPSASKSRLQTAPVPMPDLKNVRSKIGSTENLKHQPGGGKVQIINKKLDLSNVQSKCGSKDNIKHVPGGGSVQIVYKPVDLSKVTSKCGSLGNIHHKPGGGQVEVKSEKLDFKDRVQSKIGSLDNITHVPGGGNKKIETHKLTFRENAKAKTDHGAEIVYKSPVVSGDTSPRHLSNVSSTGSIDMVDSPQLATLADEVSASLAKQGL
human Tau splice isoform 1N4R (Tau412), sequence (P10636 other isoform, or with tags, fused parts or gaps limits assumed): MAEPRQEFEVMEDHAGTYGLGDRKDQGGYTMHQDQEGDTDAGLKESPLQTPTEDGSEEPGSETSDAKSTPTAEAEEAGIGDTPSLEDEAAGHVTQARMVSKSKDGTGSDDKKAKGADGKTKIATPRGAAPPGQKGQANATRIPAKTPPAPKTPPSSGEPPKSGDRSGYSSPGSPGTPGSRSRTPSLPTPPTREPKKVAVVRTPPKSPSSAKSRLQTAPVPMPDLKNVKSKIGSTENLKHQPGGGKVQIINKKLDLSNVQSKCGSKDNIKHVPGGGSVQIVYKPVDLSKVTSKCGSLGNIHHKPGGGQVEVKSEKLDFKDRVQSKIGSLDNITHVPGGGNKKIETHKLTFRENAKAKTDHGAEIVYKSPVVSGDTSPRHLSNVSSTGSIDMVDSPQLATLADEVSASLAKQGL
T2 sequence (P10636 other isoform, or with tags, fused parts or gaps limits assumed): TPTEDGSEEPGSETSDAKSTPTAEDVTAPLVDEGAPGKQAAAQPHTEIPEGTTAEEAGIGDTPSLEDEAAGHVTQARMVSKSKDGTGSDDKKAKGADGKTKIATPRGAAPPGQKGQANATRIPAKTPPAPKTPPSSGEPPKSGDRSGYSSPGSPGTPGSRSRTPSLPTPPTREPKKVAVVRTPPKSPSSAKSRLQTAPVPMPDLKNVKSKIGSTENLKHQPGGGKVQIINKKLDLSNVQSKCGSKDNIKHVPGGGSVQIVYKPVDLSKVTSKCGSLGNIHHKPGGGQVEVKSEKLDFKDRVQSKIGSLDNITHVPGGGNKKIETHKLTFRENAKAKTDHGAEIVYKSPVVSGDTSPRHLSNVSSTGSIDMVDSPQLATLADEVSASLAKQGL
human Tau splice isoform 0N3R (Tau352), sequence (P10636 other isoform, or with tags, fused parts or gaps limits assumed): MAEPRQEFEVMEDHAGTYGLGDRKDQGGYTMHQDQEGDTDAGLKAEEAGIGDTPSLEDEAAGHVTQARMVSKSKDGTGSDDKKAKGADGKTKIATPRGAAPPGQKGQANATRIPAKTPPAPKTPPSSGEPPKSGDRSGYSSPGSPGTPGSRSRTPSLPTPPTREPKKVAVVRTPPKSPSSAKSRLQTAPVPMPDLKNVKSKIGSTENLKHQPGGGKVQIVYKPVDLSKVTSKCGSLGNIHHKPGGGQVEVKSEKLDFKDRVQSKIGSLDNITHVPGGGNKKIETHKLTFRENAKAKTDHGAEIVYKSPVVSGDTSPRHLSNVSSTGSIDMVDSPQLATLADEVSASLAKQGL
T4 sequence (P57786 other isoform, or with tags, fused parts or gaps limits assumed): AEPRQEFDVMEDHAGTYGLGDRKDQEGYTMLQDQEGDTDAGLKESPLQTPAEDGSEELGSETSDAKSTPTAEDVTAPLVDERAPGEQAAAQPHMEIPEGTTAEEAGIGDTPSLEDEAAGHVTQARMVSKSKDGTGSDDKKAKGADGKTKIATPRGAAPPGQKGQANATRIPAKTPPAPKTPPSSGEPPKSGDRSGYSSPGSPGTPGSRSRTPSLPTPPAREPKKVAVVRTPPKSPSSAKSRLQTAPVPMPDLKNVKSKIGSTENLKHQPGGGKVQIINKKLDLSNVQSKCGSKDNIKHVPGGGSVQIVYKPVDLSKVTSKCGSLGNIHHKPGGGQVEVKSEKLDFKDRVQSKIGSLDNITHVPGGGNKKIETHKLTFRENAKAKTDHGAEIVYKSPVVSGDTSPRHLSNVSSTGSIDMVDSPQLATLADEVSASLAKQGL
human Tau splice isoform 2N3R (Tau410), sequence (P10636 other isoform, or with tags, fused parts or gaps limits assumed): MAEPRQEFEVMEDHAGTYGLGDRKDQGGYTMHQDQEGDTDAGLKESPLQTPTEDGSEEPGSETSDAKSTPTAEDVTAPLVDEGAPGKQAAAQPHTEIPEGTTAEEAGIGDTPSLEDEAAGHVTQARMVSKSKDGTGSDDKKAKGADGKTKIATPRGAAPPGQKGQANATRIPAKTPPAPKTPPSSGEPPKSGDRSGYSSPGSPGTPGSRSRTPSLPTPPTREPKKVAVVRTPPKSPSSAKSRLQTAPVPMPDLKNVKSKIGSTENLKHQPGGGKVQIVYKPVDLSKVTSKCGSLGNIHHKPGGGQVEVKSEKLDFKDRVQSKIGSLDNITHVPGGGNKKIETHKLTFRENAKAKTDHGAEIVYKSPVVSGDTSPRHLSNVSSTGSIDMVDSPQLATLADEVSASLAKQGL
T5 sequence (P10636 other isoform, or with tags, fused parts or gaps limits assumed): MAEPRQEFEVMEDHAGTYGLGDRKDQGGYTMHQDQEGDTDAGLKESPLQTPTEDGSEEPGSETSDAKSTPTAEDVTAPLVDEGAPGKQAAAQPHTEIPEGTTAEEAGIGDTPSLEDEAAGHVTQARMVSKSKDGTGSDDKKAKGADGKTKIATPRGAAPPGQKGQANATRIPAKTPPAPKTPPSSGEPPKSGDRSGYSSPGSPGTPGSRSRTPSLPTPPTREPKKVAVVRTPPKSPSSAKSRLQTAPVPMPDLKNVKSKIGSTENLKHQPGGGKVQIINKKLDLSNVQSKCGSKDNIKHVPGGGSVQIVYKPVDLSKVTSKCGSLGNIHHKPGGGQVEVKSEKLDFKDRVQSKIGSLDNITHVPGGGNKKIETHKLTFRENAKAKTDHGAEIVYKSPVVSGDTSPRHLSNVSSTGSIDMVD

A450 avg. [1]: 1.46
A450 avg. [2]: 1.49
A450 avg. [3]: 0.939
A450 avg. [4]: 1.19
A450 avg. (mouse Tau): 1.1
A450 avg. [5]: 1.13
A450 avg. [6]: 1.19
A450 avg. [7]: 0.323
A450 avg. [8]: 1.47
A450 avg. (cynomolgus monkey Tau): 0.867
A450 avg. [9]: 0.806
B1: Clone 1D10 Fab (Fab, V domains shown)
VH: EVQLQQSGAELVRPGASVKLSCTASGFNIKDSLMHWMKQRPEQGLEWIGWIDPEDGETKYAPKFQDKATLTADTSSNAAYLQLSSLTSEDTAIYYCVRGDWDGGYWGQGTTLTVSS
VL: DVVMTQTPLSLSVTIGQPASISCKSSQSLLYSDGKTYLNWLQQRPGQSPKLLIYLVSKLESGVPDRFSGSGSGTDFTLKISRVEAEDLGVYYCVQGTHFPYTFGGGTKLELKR
notes: crude periplasmic Fab; mouse V regions joined to human CH1 and human kappa constant

A450 avg. [1]: 2.54
A450 avg. [2]: 2.58
A450 avg. [3]: 2.33
A450 avg. [4]: 2.08
A450 avg. (mouse Tau): 2.07
A450 avg. [5]: 2.08
A450 avg. [6]: 2.48
A450 avg. [7]: 1.19
A450 avg. [8]: 2.57
A450 avg. (cynomolgus monkey Tau): 1.9
A450 avg. [9]: 1.64
B2: Clone 1A5 Fab (Fab, V domains shown)
VH: EVQLQQSGAELVRPGASVKLSCTASGFNIKDSLIHWVKQRPEQGLEWIGWIDPEDGETKYAPKFQDKATKTADTSSNTAYLQLSSLTSEDTAIYYCASGEWDYWGQGTSVTVSS
VL: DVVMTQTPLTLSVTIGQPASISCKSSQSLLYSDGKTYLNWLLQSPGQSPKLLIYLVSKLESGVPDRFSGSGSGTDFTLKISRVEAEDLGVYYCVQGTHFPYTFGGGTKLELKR
notes: as for B1

A450 avg. [1]: 2.75
A450 avg. [2]: 2.7
A450 avg. [3]: 2.69
A450 avg. [4]: 2.24
A450 (mouse Tau): 0.06
A450 avg. (mouse Tau): 0.06
A450 avg. [5]: 2.3
A450 avg. [6]: 2.66
A450 avg. [7]: 2.4
A450 avg. [8]: 2.73
A450 avg. (cynomolgus monkey Tau): 2.31
A450 avg. [9]: 2.12
B3: Clone 1C7 Fab (Fab, V domains shown)
VH: EVKLVESGGGLVKPGGSLKLSCAASGFTFSSYGMSWVRQTPEKRLEWVASISGDGGSYIHYADSVKGRFTISRDSAKNTLYLQMSSLRSEDTALYYCARLPYWGQGTLVTVSA
VL: DIVMTQSPSSLTVTAGEKVTMSCKSSQSLLNSGNQKNYLTWYQQKPGQPPKLLIYWASTRESGVPDRFTGSGSGTDFTLTISNVQSEDLAEYFCQQYNSYPLTFGAGTKLELKR
notes: as for B1

normalized binding of second antibody [10]: 0.84
normalized binding of second antibody [11]: 0.88
Kd [12]: 0.2 nM
normalized binding of second antibody [13]: 0.82
normalized binding of second antibody [14]: 1
Kd [15]: 0.8 nM and 0.44 nM
normalized binding of second antibody [16]: 0.03
B4: chimeric IgG clone 1C7 (antibody, V domains shown)
VH: B3 VH
VL: B3 VL
notes: mouse-human chimeric IgG from HEK293; also called 1C7.IgG; anti-Tau^1C7

A450 avg. [1]: 2
A450 avg. [2]: 2.16
A450 avg. [3]: 1.8
A450 avg. [4]: 1.61
A450 avg. (mouse Tau): 1.51
A450 avg. [5]: 1.68
A450 avg. [6]: 1.88
A450 avg. [7]: 0.725
A450 avg. [8]: 2.04
A450 avg. (cynomolgus monkey Tau): 1.53
A450 avg. [9]: 1.23
B5: Clone 1G7 Fab (Fab, V domains shown)
VH: EVQLQQSGAEVVRPGASVKLSCTTSGFNIKDSLMHWLKQRPEQGLEWIGWIDPEDGETKYAPKFQDKATITADTSSNTAYLQLSSLTSGDTAIYYCARRDWEGPWGQGTLVTVSA
VL: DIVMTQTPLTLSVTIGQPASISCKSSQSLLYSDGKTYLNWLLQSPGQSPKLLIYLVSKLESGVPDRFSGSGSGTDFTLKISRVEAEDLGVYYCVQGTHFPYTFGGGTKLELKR
notes: as for B1
